According to IntAct's records for PubMed 23942232:

B1: TNF receptor-associated factor 6 (Mus musculus), P70196 (parent)
chain: MSLLNCENSCGSSQSSSDCCAAMAASCSAAVKDDSVSGSASTGNLSSSFMEEIQGYDVEFDPPLESKYECPICLMALREAVQTPCGHRFCKACIIKSIRDAGHKCPVDNEILLENQLFPDNFAKREILSLTVKCPNKGCLQKMELRHLEDHQVHCEFALVNCPQCQRPFQKCQVNTHIIEDCPRRQVSCVNCAVSMAYEEKEIHDQSCPLANIICEYCGTILIREQMPNHYDLDCPTAPIPCTFSVFGCHEKMQRNHLARHLQENTQLHMRLLAQAVHNVNLALRPCDAASPSRGCRPEDPNYEETIKQLESRLVRQDHQIRELTAKMETQSMYVGELKRTIRTLEDKVAEMEAQQCNGIYIWKIGNFGMHLKSQEEERPVVIHSPGFYTGRPGYKLCMRLHLQLPTAQRCANYISLFVHTMQGEYDSHLPWPFQGTIRLTILDQSEALIRQNHEEVMDAKPELLAFQRPTIPRNPKGFGYVTFMHLEALRQGTFIKDDTLLVRCEVSTRFDMGGLRKEGFQPRSTDAGV

Variants of: B1
Conditions: with ern1_mouse Ern1, Q9EQY0
Sequence of ern1_mouse Ern1, Q9EQY0 (Q9EQY0 whole entry): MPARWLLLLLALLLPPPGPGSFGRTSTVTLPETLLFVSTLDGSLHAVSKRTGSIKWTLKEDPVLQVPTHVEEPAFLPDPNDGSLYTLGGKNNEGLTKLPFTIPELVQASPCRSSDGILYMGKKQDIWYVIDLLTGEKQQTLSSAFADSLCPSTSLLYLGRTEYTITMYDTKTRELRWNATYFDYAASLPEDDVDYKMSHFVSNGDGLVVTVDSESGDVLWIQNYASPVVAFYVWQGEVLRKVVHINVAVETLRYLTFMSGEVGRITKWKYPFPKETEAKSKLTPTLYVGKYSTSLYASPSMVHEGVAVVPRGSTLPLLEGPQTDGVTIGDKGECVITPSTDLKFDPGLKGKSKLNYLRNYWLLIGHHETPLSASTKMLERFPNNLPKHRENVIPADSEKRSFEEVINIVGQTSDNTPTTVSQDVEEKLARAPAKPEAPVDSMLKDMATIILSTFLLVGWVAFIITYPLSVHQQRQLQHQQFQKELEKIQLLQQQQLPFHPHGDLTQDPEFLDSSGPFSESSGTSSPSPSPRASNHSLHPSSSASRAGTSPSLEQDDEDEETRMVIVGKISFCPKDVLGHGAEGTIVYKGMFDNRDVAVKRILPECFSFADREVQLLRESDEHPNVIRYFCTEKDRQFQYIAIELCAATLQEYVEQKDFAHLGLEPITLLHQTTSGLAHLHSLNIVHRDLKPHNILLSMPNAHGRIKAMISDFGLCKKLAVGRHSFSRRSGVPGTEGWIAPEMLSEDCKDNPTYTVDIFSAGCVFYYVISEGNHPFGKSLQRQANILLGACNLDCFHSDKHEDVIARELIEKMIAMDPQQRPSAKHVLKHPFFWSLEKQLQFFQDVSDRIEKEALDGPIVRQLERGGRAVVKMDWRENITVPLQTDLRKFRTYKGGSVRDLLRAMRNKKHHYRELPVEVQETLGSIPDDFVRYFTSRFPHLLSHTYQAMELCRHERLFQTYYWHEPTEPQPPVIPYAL

| effect of a mutation on the interaction | Variant |
| --- | --- |
| increasing interaction | MSLLNCENSCGSSQSSSDCCAAMAASCSAAVKDDSVSGSASTGNLSSSFMEEIQGYDVEFDPPLESKYEAPICLMALREAVQTPCGHRFCKACIIKSIRDAGHKCPVDNEILLENQLFPDNFAKREILSLTVKCPNKGCLQKMELRHLEDHQVHCEFALVNCPQCQRPFQKCQVNTHIIEDCPRRQVSCVNCAVSMAYEEKEIHDQSCPLANIICEYCGTILIREQMPNHYDLDCPTAPIPCTFSVFGCHEKMQRNHLARHLQENTQLHMRLLAQAVHNVNLALRPCDAASPSRGCRPEDPNYEETIKQLESRLVRQDHQIRELTAKMETQSMYVGELKRTIRTLEDKVAEMEAQQCNGIYIWKIGNFGMHLKSQEEERPVVIHSPGFYTGRPGYKLCMRLHLQLPTAQRCANYISLFVHTMQGEYDSHLPWPFQGTIRLTILDQSEALIRQNHEEVMDAKPELLAFQRPTIPRNPKGFGYVTFMHLEALRQGTFIKDDTLLVRCEVSTRFDMGGLRKEGFQPRSTDAGV [C70A] |
